Measurements reported in patent US20250043019A1 (Janssen / Centocor, published 2025).

T1: human CD20 on the cell surface (human, UniProt P11836 1-297)
T1 construct: whole, on cells; On B-lymphoma lines, primary B cells, K562 CD20 or HEK293 transfectants; also called MS4A1; B-lymphocyte antigen CD20
T1 sequence (looked up): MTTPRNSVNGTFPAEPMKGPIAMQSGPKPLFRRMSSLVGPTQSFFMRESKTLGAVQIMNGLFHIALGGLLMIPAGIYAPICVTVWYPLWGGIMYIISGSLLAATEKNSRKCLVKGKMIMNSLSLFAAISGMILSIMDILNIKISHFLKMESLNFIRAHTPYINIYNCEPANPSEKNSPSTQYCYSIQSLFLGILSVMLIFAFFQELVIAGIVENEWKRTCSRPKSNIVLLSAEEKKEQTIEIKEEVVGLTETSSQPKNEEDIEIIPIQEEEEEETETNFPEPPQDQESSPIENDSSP

T2: cynomolgus monkey CD20 on B cells (cynomolgus monkey, UniProt M4ZHZ6 1-297)
T2 construct: whole, on cells
T2 sequence: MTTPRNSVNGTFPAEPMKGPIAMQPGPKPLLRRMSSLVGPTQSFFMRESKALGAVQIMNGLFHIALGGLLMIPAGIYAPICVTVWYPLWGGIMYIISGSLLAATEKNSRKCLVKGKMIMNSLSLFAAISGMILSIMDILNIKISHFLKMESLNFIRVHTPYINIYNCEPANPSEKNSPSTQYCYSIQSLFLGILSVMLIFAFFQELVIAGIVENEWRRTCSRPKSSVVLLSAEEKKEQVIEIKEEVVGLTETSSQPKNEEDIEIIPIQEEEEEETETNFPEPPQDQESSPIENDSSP

T3: human CD79b and CD20 co-expressed on the surface of B-lymphoma cell lines or primary B cells (human, UniProt P11836 1-297)
T3 sequence 1: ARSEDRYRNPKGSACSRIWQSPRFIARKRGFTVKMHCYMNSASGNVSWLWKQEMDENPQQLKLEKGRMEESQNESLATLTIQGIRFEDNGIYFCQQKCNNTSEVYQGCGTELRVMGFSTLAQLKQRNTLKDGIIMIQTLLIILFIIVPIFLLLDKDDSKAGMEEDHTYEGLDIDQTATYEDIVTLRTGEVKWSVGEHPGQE
T3 sequence 2: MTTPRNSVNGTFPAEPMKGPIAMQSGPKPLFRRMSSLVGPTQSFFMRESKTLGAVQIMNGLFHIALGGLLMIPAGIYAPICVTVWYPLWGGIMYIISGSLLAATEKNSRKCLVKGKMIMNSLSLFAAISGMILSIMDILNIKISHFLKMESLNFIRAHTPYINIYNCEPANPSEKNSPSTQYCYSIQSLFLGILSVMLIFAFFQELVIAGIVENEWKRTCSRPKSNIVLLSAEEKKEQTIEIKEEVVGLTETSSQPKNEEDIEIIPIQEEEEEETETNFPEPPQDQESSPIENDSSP

T4: recombinant extracellular domain of human CD79b, short isoform (human, UniProt P40259 29-159)
T4 chain: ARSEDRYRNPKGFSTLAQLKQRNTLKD

T5: recombinant extracellular domain of human CD79b, long isoform (human, UniProt P40259 29-159)
T5 construct: also called hu CD79b long
T5 sequence: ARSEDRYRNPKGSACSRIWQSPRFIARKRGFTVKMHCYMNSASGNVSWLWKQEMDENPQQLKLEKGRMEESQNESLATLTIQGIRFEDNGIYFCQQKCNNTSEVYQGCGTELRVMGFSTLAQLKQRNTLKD


Key:
[1] = molecular target: T1, human CD20 on the cell surface; assay: flow cytometry, human B cells
[2] = molecular target: T2, cynomolgus monkey CD20 on B cells; assay: flow cytometry, cynomolgus B cells
[3] = molecular target: T3, human CD79b and CD20 co-expressed on …; assay: cell-based or functional assay
[4] = molecular target: T3, human CD79b and CD20 co-expressed on …; assay: cell-based or functional assay; remark: listed apart in the source
[5] = molecular target: T3, human CD79b and CD20 co-expressed on …; assay: cell-based or functional assay; remark: listed apart in the source
[6] = molecular target: T3, human CD79b and CD20 co-expressed on …; assay: cell-based or functional assay; remark: listed apart in the source
[7] = molecular target: T3, human CD79b and CD20 co-expressed on …; assay: cell-based or functional assay; remark: listed apart in the source
[8] = molecular target: T3, human CD79b and CD20 co-expressed on …; assay: cell-based or functional assay; remark: listed apart in the source
[9] = molecular target: T6, cynomolgus monkey CD79b antigen (cynomolgus monkey); assay: SPR Biacore 8k, cyno CD79b injected up to 3000 nM
T6 construct: also called cyno CD79b; CD9W1.001
Outline: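 Antibodies captured on anti-human Fc C1 chip, CD79b extracellular domain injected in HBSP+ at 25 °C; association 2 or 3 min, dissociation 30 min. Double-referenced sensorgrams fitted to a 1:1 Langmuir model for on-rate, off-rate and affinity.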

[10] = molecular target: T4, recombinant extracellular domain of …; assay: SPR Biacore 8k, antibody captured by anti-Fc, 25 C
Description: (§1) General Protocol for SPR Affinity Assessment: Affinity assessment of the bispecific trispecific constructs against human CD79b were measure using recombinantly expressed extracellular domain of CD79b short and long isoforms (CD9W7.001 and CD9W8.001, respectively) by Surface Plasmon Resonance (SPR) using a Biacore 8k SPR system (Biacore) at 25° C. in HBSP+ buffer. Cross-reactivity of the same antibody panel was also assessed against cyno and mouse antigens (CD9W1.001 and CD9W105.001, respectively). Briefly, a C1 sensor chip was immobilized with anti-human Fc (target immobilization levels of >400 RU) using vendor recommended amino coupling protocol. […] The association and dissociation phases were measured for 2 or 3 minutes and 30 minutes, respectively.
(§2) The raw binding sensorgrams were processed using Biacore Insight software (Biacore) by double-referencing and the processed sensorgrams were analyzed for cross-reactivity and fitted to a 1:1 Langmuir model to obtain on-rates, off-rates and affinities.

[11] = molecular target: T5, recombinant extracellular domain of …; assay: SPR Biacore 8k, antibody captured by anti-Fc, 25 C
Description: as §1, §2

[12] = molecular target: T3, human CD79b and CD20 co-expressed on …; assay: flow cytometry, HBL-1 cells (CD79b+ CD20+), 1 h 37 C
Description: (§3) All cells were washed with BD stain buffer (BD Biosciences; Cat #554657), centrifuged at 1200 RPM for 3 minutes, with supernatant discarded. Cells were then stained for 20 minutes at 4° C. with BD stain buffer containing AlexaFluor 647 labeled anti-human IgG secondary antibody (Jackson Immuno; Cat #109-606-098) at a 1:200 dilution along with Aqua Fixable Live/Dead stain (Invitrogen; Cat #L34957) at a 1:400 dilution. All cells were washed with BD stain buffer (BD Biosciences; Cat #554657), centrifuged at 1200 RPM for 3 mins, with supernatant discarded. Cells were analyzed using Intellicyt (Sartorius) flow cytometer and mean fluorescent intensity (MFI) was generated using Forcyt software (Sartorius). MFI was graphed and EC50 values generated using GraphPad PRISM v.8. Dose response curves were generated by transforming the x axis values using the formula […]. Data was then graphed using non-linear regression curve fit analysis “log(agonist) vs. response-variable slope (four parameter)”.

[13] = molecular target: T3, human CD79b and CD20 co-expressed on …; assay: flow cytometry, Carnaval cells (CD79b+ CD20+), 1 h 37 C
Description: as §3

[14] = molecular target: T3, human CD79b and CD20 co-expressed on …; assay: flow cytometry, OCI-LY10 cells (CD79b+ CD20+), 1 h 37 C
Description: as §3

Binder	binding result [1]	binding result [2]	IC50, T-cell killing of HBL-1 (Incucyte) [3]	IC50, T-cell killing of OCI-Ly10 (Incucyte) [4]	IC50, CARNAVAL killing (Incucyte) [5]	IC50, Daudi killing (Incucyte) [6]	IC50, CARNAVAL killing, 72 h (FACS) [7]	IC50, HBL-1 killing, 72 h (FACS) [7]	IC50, OCI-LY10 killing, 72 h (FACS) [7]	Cmax (maximum cytotoxicity), donor 1 [8]	Cmax (maximum cytotoxicity), donor 2 [8]	Cmax (maximum cytotoxicity), donor 3 [8]	EC50, autologous B-cell depletion, donor 1 [8]	EC50, autologous B-cell depletion, donor 2 [8]	Kd [9]	Kd [10]	Kd [11]	EC50 [12]	EC50 [13]	EC50 [14]
C20B648 anti-CD20 binder (antibody, V domains shown) VH: QVQLVQSGAEVKKPGSSVKVSCKASGYTFSSYNMHWVRQAPGQGLEWMGAIYPGAGDTSYAQKFQGRVTITADESTSTAYMELSSLRSEDTAVYYCARSNYYGSSGWYFDVWGKGTTVTVSS VL: EIVLTQSPATLSLSPGERATLSCRASLSVSSMHWYQQKPGQAPRLLIYATSNLASGIPARFSGSGSGTDFTLTISSLEPEDFAVYYCQQWIFNPPTFGGGTKVEIK	binds	binds																		
C923B74 CD79bxCD20xCD3 trispecific antibody (other, Trispecific IgG1; also called CD9B330-N31S / CD3B2030-N106A-scFv-LH-C20B22) heavy: QVQLQQSGPGLVKPSQTLSLTCAISGDSVSSNSATWNWIRQSPSRGLEWLGRTYYRSKWYNDYTVSVKSRITINPDTSKNQFSLQLNSVTPEDTAVYYCTRVDIAFDYWGQGTLVTVSSASTKGPSVFPLAPSSKSTSGGTAALGCLVKDYFPEPVTVSWNSGALTSGVHTFPAVLQSSGLYSLSSVVTVPSSSLGTQTYICNVNHKPSNTKVDKKVEPKSCDKTHTCPPCPAPEAAGGPSVFLFPPKPKDTLMISRTPEVTCVVVSVSHEDPEVKFNWYVDGVEVHNAKTKPREEQYNSTYRVVSVLTVLHQDWLNGKEYKCKVSNKALPAPIEKTISKAKGQPREPQVYTLPPSREEMTKNQVSLSCAVKGFYPSDIAVEWESNGQPENNYKTTPPVLDSDGSFFLVSKLTVDKSRWQQGNVFSCSVMHEALHNRFTQKSLSLSPGK light: QTVVTQPPSVSEAPRQRVTISCSGSSSNIGNHGVNWYQQLPGKAPKLLIYNDDLLPSGVSDRFSGSTSGTSGSLAISGLQSEDEADYYCAAWDDSLNGVVFGGGTKLTVLGQPKAAPSVTLFPPSSEELQANKATLVCLISDFYPGAVTVAWKADSSPVKAGVETTTPSKQSNNKYAASSYLSLTPEQWKSHRSYSCQVTHEGSTVEKTVAPTECS EIVLTQSPATLSASPGERVTLSCSASSSVSYMNWYQQKPGQAPRRWIYDSSKLASGVPARFSGSGSGRDYTLTISSLEPEDFAVYYCQQWSRNPPTFGGGTKVEIKGGSEGKSSGSGSESKSTGGSQVQLVQSGAEVKKPGSSVKVSCKASGYTFTRSTMHWVKQAPGQGLEWIGYINPSSAYTNYNQKFQGRVTLTADKSTSTAYMELSSLRSEDTAVYYCASPQVHYDYAGFPYWGQGTLVTVSSEPKSSDKTHTCPPCPAPEAAGGPSVFLFPPKPKDTLMISRTPEVTCVVVSVSHEDPEVKFNWYVDGVEVHNAKTKPREEQYNSTYRVVSVLTVLHQDWLNGKEYKCKVSNKALPAPIEKTISKAKGQPREPQVYTLPPSREEMTKNQVSLWCLVKGFYPSDIAVEWESNGQPENNYKTTPPVLDSDGSFFLYSKLTVDKSRWQQGNVFSCSVMHEALHNHYTQKSLSLSPGKGGSEGKSSGSGSESKSTGGSAIQLTQSPSSLSASVGDRVTITCRASSSVSYIHWFQQKPGKAPKPLIYATSNLASGVPSRFSGSGSGTDFTLTISSLQPEDFATYYCQQWTSNPPTFGQGTKLEIKGGSEGKSSGSGSESKSTGGSQVQLVQSGAEVKKPGSSVKVSCKASGYTFTSYNMHWVRQAPGQGLEWMGAIYPGNGDTSYAQKFQGRVTITADKSTSTAYMELSSLRSEDTAVYYCARSTYYGGDWYFNVWGQGTLVTVSS			0.346 nM	25.6 nM	0.741 nM	0.1 nM	0.35 nM	2.42 nM	24.2 nM	34%	66%	40%	78 nM	23 nM	> 3000 nM	0.39 nM	0.023 nM	52 nM	23 nM	66 nM
